The source of these data is PMC8805299, “Determining the oxidation state of elements by X-ray crystallography” (Acta Crystallographica. Section D, Structural Biology, 2022).

For orientation: stoichiometry N means the number of molecules, sites or subunits per partner or assembly.

This series deals with the molecule itself. Description: crystal structure; diFe-SulE crystals grown anoxically in 0.1 M bis-Tris pH 5.5, 24% (w/v) PEG 3350 at 293 K, treated with 100 mM H2O2; data at 100 K; space group P63; three data sets at 5%, 10% and 100% beamline flux.

B1: Sulfolobus tokodaii sulerythrin reconstituted with ferrous iron (diFe-SulE) (natural protein, UniProt F9VPE5 1-144, looked up)
chain: MKDLKGTKTAENLKQGFIGESMANRRYLYFAKRADEEGYPEIAGLLRSIAEGETAHAFGHLDFIRQGGLTDPATDKPIGTLEQMIESAIAGETYEWTQMYPGFAKVAREEGFPEVAEWFETLARAEKSHAEKFQNVLKQLKGGT
notes: Sulerythrin (SulE), Sulfolobus tokodaii, UniProt F9VPE5, residues 1-145; synthetic gene in pET-28a with an N-terminal Strep-tag and a TEV protease site; Domain-swapped homodimer; each of its two binuclear metal sites holds two iron ions (four in all); Crystals were treated with 100 mM H2O2; not shown: Strep-tag, N-terminal, cleaved
Consider B1, for which the “stoichiometry N” value was determined as 2.
